Test [1] addresses T1, CTR ECD (Homo sapiens, UniProt P30988).
T1 construct: pHLsec/hCTR.34–141-H6 (H-pSL003); H6 (His6) (C); made in house; host or cells: HEK293T
T1 sequence (P30988 34-141): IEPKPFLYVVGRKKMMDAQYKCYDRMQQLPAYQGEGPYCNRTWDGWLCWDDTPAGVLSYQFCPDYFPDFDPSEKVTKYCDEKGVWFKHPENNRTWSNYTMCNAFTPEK
Kind of test: FP competition peptide binding assay with purified CTR ECD, FITC-sCT(22–32) probe. The following applies: for Ki: CTR ECD 500 nM, FITC-sCT(22–32) 10 nM, mean ± SD of N = 3 independent experiments. From the text: The overall procedures of FP peptide binding assay with receptor ECDs and FITC-labeled peptide probes were previously described. […] A SpectraiD5 (Molecular Devices, San Jose, CA, USA) was used to measure fluorescence polarization/anisotropy. Background (reaction buffer only) was subtracted for anisotropy calculation. For the SpectraiD5, G factor (0.38 for FITC-sCT(22–32) and 0.41 for FITC-AC413(6–25) and FITC-AC413(6–25) Y25P) was used to correct the instrumental bias for anisotropy calculation. The polarization (mP) of the FITC-peptide probes only (No receptor ECD) was set close to 50 mP. For the saturation binding assay, the anisotropy values were re-calculated when total fluorescence intensity was changed by more than 10% as previously described. […] Anisotropy values were used to produce non-linear regression curves with PRISM 5.0 (GraphPad software, San Diego, CA, USA) as previously described. KI indicates affinity values obtained from competition binding assay and it was calculated from the non-linear regression curves of anisotropy by using equations previously described. Concentrations of the FITC-labeled peptide and the total receptor protein and the affinity of the FITC-labeled peptide for the receptor protein were incorporated into the equations for the KI calculation of the competitive peptide ligand. Two technical replicates were used for each receptor concentration in the peptide-binding curve. SEM of the anisotropy values of the two replicates at each receptor concentration were presented as error bars in the representative peptide-binding curves. When the error bars were shorter than the height of the symbol, they were omitted in the representative curves. At least three independent peptide binding experiments were performed to obtain three independent peptide-binding curves. Mean and standard deviation of peptide ligand affinity were calculated from them.

The target in test [2] is T2, calcitonin receptor extracellular domain (hCTR.34–141-H6) (human, UniProt P30988 34-141).
T2 construct: human calcitonin receptor (CTR), extracellular domain, residues 34-141; Secreted from a pHLsec-based vector; also called CTR ECD; purified CTR ECD; source: HEK293T, transiently transfected, secreted to cell culture media, purified (IMAC, SEC)
T2 sequence (looked up): T1 sequence (P30988 34-141)
Put plainly: fluorescence polarisation; competition binding, full curves: FITC-sCT(22–32) probe 10 nM, CTR ECD 500 nM, competitive peptide at multiple concentrations, all in solution; KI from non-linear regression of anisotropy. The following applies: both partners purified. (In general: In fluorescence polarisation assays a small probe gives low polarisation when free and higher when bound to something large.)

[3] abbreviates: Figure 2b experiment set, read-out: pKI Mean ± SD (converted).
[4] abbreviates: Figure 1d experiment set, pKI = –log10[KI] (M).

Where “and” joins values, the source holds several entries; their conditions need not be identical. Equal values may be shown once. Read-outs that look alike come from different tables or passages of the source. Where a SMILES comes first, the peptide text is derived from it. Where no end group is shown, it is not given here. [ ]: non-standard residue; d: D form. Hyp = O=C(O)[C@@H]1C[C@@H](O)CN1

As to YPRTDTGSGTP-NH2 [sCT(22–32) N26D], the Ki in test [1] (setting [3]) is 9.77e-07 M; in test [1] (setting [4]), 1e-06 M.
Molecule YPRTNTGPGTP-NH2 [sCT(22–32) S29P] had a Ki in test [1] (setting [4]) of 3.47e-07 M.
`C[C@@H](O)[C@H](NC(=O)[C@H](CC(=O)O)NC(=O)[C@@H](NC(=O)[C@H](CCCNC(=N)N)NC(=O)[C@@H]1CCCN1C(=O)[C@@H](N)Cc1ccc(O)cc1)[C@@H](C)O)C(=O)NCC(=O)N1C[C@H](O)C[C@H]1C(=O)NCC(=O)N[C@H](C(=O)N1CCC[C@H]1C(N)=O)[C@@H](C)O` [sCT(22–32) N26D/S29HYP] (H-YPRTDTG[Hyp]GTP-NH2; N-terminus assumed): the Ki in test [1] (Figure 3b experiment set, read-out: pKI Mean ± SD (converted)) is 3.16e-06 M. In addition, the “affinity decrease for the CTR ECD compared to sCT(22–32) with N26D/S29P mutations” value in test [1] (Figure 3b, ratio of KI values, versus sCT(22–32) N26D/S29P) is 13 fold.
As for YPRTDTGVGTP-NH2 [sCT(22–32) N26D/S29V], the Ki in test [1] (setting [3]) is 5.89e-07 M.

B1: sCT(22–32) N26D (peptide)
peptide: YPRTDTGSGTP-NH2
notes: salmon calcitonin (sCT), residues 22-32, with N26D; numbers count on: the mature 32-residue hormone; also called sCT(22–32) N26D backbone peptide; source: synthetic peptide (Genscript, HPLC-purified)
Take B1: in test [2], the Ki is 980 nM and 1000 nM; the pKI is 6.01 -log10(M) and 6 -log10(M).

B2: sCT(22–32) N26D/S29HYP (peptide)
peptide: YPRTDTG[Hyp]GTP-NH2
modifications: N-terminus assumed
SMILES: C[C@@H](O)[C@H](NC(=O)[C@H](CC(=O)O)NC(=O)[C@@H](NC(=O)[C@H](CCCNC(=N)N)NC(=O)[C@@H]1CCCN1C(=O)[C@@H](N)Cc1ccc(O)cc1)[C@@H](C)O)C(=O)NCC(=O)N1C[C@H](O)C[C@H]1C(=O)NCC(=O)N[C@H](C(=O)N1CCC[C@H]1C(N)=O)[C@@H](C)O
notes: salmon calcitonin (sCT), residues 22-32, with N26D and S29HYP; printed as YPRTDTG[HYP]GTP-NH2, the hydroxyproline at 29 is written here as P; numbers count on: the mature 32-residue hormone; Residue 29 is hydroxyproline, not plain proline; source: synthetic peptide (Genscript, HPLC-purified)
On to B2, for which, in test [2], the Ki amounted to 3180 nM and the pKI is 5.5 -log10(M).

B3: sCT(22–32) S29P (peptide)
peptide: YPRTNTGPGTP-NH2
notes: salmon calcitonin (sCT), residues 22-32, with S29P; numbers count on: the mature 32-residue hormone; source: synthetic peptide (Genscript, HPLC-purified)
With B3, in test [2], the Ki was found to be 343 nM and the pKI is 6.46 -log10(M).

B4: sCT(22–32) N26D/S29A (peptide)
peptide: YPRTDTGAGTP-NH2
notes: salmon calcitonin (sCT), residues 22-32, with N26D and S29A; numbers count on: the mature 32-residue hormone; source: synthetic peptide (Genscript, HPLC-purified)
For the molecule B4, in test [2], the Ki came to 437 nM and the pKI was 6.36 -log10(M).

B5: sCT(22–32) N26D/S29V (peptide)
peptide: YPRTDTGVGTP-NH2
notes: salmon calcitonin (sCT), residues 22-32, with N26D and S29V; numbers count on: the mature 32-residue hormone; source: synthetic peptide (Genscript, HPLC-purified)
With B5, in test [2], the Ki came to 591 nM and the pKI is 6.23 -log10(M).

Source of the values: publication PMC8466238, “Development of High Affinity Calcitonin Analog Fragments Targeting Extracellular Domains of Calcitonin Family Receptors” (Biomolecules, 2021).
